Columns and labels:
[1] = biological target: T1, Dicer TN (catalytically inactive), without ectopic TRBP;TRBP full length (D1-D2-D3) (UniProt Q9UPY3+Q15633); experiment: single-molecule TIRF, two-color; conditions: amine-modified U69 (dye), 20 mM Tris pH 8.0, 200 mM KCl, 0.2 mM EDTA, glucose oxidase/catalase oxygen scavenger, 1 mM Trolox, 200 pM labelled RNA (200 nM in Methods), Mg2+ where …
[2] = biological target: Dicer TN (catalytically inactive), without ectopic TRBP (UniProt Q9UPY3); experiment: single-molecule TIRF competition; conditions: 1 uM competitor tRNA; WT or TN form not given; amine-modified U69 (dye); 20 mM Tris pH 8.0, 200 mM KCl, 0.2 mM EDTA, glucose oxidase/catalase oxygen scavenger, 1 mM Trolox; 200 pM labelled RNA (200 nM in Methods); Mg2+ where …
[3] = biological target: Dicer TN (catalytically inactive), without ectopic TRBP;TRBP D2-D3 (UniProt Q9UPY3+Q15633); experiment: single-molecule TIRF competition; conditions: 1 uM competitor tRNA; WT or TN form not given; amine-modified U69 (dye); 20 mM Tris pH 8.0, 200 mM KCl, 0.2 mM EDTA, glucose oxidase/catalase oxygen scavenger, 1 mM Trolox; 200 pM labelled RNA (200 nM in Methods); Mg2+ where …
[4] = biological target: Dicer TN (catalytically inactive), without ectopic TRBP;TRBP D3 (UniProt Q9UPY3+Q15633); experiment: single-molecule TIRF competition; conditions: 1 uM competitor tRNA; WT or TN form not given; amine-modified U69 (dye); 20 mM Tris pH 8.0, 200 mM KCl, 0.2 mM EDTA, glucose oxidase/catalase oxygen scavenger, 1 mM Trolox; 200 pM labelled RNA (200 nM in Methods); Mg2+ where …
[5] = biological target: T1, Dicer TN (catalytically inactive), without ectopic TRBP;TRBP full length (D1-D2-D3); experiment: single-molecule TIRF competition; conditions: 1 uM competitor tRNA; WT or TN form not given; amine-modified U69 (dye); 20 mM Tris pH 8.0, 200 mM KCl, 0.2 mM EDTA, glucose oxidase/catalase oxygen scavenger, 1 mM Trolox; 200 pM labelled RNA (200 nM in Methods); Mg2+ where …
[6] = biological target: Dicer TN (catalytically inactive), without ectopic TRBP (UniProt Q9UPY3); experiment: single-molecule TIRF; conditions: amine-modified U69 (dye), 20 mM Tris pH 8.0, 200 mM KCl, 0.2 mM EDTA, glucose oxidase/catalase oxygen scavenger, 1 mM Trolox, 200 pM labelled RNA (200 nM in Methods), Mg2+ where …
[7] = biological target: T1, Dicer TN (catalytically inactive), without ectopic TRBP;TRBP full length (D1-D2-D3); experiment: single-molecule TIRF; conditions: amine-modified U69 (dye), 20 mM Tris pH 8.0, 200 mM KCl, 0.2 mM EDTA, glucose oxidase/catalase oxygen scavenger, 1 mM Trolox, 200 pM labelled RNA (200 nM in Methods), Mg2+ where …
TRBP recombinant = biological target: T2, TRBP recombinant (UniProt Q15633); experiment: single-molecule TIRF; conditions: amine-modified U69 (dye), 20 mM Tris pH 8.0, 200 mM KCl, 0.2 mM EDTA, glucose oxidase/catalase oxygen scavenger, 1 mM Trolox, 200 pM labelled RNA (200 nM in Methods), Mg2+ where …
T2 sequence: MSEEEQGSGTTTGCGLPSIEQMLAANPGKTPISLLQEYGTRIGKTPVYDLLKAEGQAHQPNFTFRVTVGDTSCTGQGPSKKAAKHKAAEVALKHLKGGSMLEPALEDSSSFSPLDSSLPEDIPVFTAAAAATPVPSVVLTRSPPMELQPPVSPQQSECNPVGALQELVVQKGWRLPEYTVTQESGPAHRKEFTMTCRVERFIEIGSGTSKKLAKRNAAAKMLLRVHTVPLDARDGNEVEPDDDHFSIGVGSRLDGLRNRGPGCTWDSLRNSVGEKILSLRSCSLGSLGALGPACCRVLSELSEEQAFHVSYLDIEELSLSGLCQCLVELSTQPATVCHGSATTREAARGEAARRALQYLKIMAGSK

[8] = equivalent IP amount, WT or TN form not given

Question: How did the binding signal (binding events) ([1]; 2.9x fewer than N1, 55.6% long, 25.3 +/- 2.9 s, short 3.7 +/- 0.8 s) turn out when “UGAGGUAGUAGGUUGUAUAGUUUUAGGGUCACACCCACCACUGGGAGAUAACUAUACAAUCUACUGUCUUUC [pre-let-7a-1 3' 1nt]” was run?
Answer: 2750

Question: Which results are given for “UGAGGUAGUAGGUUGUAUAGUUUUAGGGUCACACCCACCACUGGGAGAUAACUAUACAAUCUACUGUCUUUCU [pre-let-7a-1 3' 2nt (standard)]”?
Answer: binding signal (binding events) ([1]; with N2 at equal concentration, 57.7% long binding): 7410; binding signal (s (long dwell time)) ([1]; with N3, 54.7% long, short 1.4 +/- 0.3 s): 17; binding signal (binding events) ([1]; with N4, long 19.1 s, short 3.0 +/- 1.05 s, 54.0%): 8050; binding signal (% inhibition of binding) [2]: 77.9; binding signal (% inhibition of binding) [3]: 29; binding signal (% inhibition of binding) [4]: 83; binding signal (% inhibition of binding) [5]: 6.1; binding signal (s (long dwell time)) ([6]; 43.1% long, short 2.8 +/- 0.7 s, 56.9%, panel assignment from figure order): 21.9; binding signal (bound spots per field) [6, 8]: 58; binding signal (s (long dwell time)) ([7]; 48.1% long, short 1.5 +/- 0.4 s, 51.9%): 13.9; binding signal (bound spots per field) [7, 8]: 781; binding signal (s (dwell time)) (TRBP recombinant; 200 pM RNA): 120

Question: With “UGAGGUAGUAGGUUGUAUAGUUUUAGGGUCACACCCACCACUGGGAGAUAACUAUACAAUCUACUGUCUUUCU [pre-let-7a-1 3' 2nt-biotin]” as the sequence, how does the binding signal (binding events) ([1]; 3'-biotin) read?
Answer: 2340

Question: And the binding signal (binding events) ([6]; five times more than Dicer-TRBP, 56.7% long, 34.0 +/- 5.6 s, 3'-biotin)?
Answer: 1780

Question: What about the binding signal (binding events) ([7]; 14.2% long, 27.8 +/- 2.2 s, short 3.7 +/- 1.3 s, 85.8%, 3'-biotin) of the same sequence?
Answer: 341

Question: And the binding signal (s (dwell time)) (TRBP recombinant; no noticeable difference from N1, 3'-biotin)?
Answer: 120

Question: Which binding signal (binding events) ([1]; 2.5x fewer than N1, 31.0% long, 11.0 +/- 2.3 s, short 1.2 +/- 0.2 s) does the source give for “UGAGGUAGUAGGUUGUAUAGUUUUAGGGUCACACCCACCACUGGGAGAUAACUAUACAAUCUACUGUCUUUCUUUUUUUUUUUUUUUUUUUUUUUUUUUUUUUUUUUUUUUUUUUUUUUUU [pre-let-7a-1 3' U49]” here?
Answer: 2040

Question: And the binding signal (s (dwell time)) (TRBP recombinant; no difference from N1)?
Answer: 120
